Test results: patent US20250320286A1

Target: 4U-3pE-beta-Amyloid
Assay: SPR; 4U-3pE-beta-Amyloid 0.6 to 4.5 nM

Work on Control mAb (antibody) yielded a Kd of 0.0379 nM, a koff of 0.000156 s⁻¹ and a kon of 4.11e+06 M⁻¹ s⁻¹.
